Experimental data: patent US20120329986A1
Numbered stars: 1 amine (or outer) side, 2 acyl side, 3 side chain; on linkers, the order of the positions; unused ones are H or OH. Square brackets hold non-standard residues; d marks the D form. Primed or numbered codes have the meaning given here. Ends that are not written are not given here. dTrp(2-Me) = Cc1[nH]c2ccccc2c1C[C@@H](N)C(=O)O; azaPhe = O=C(N(Cc1ccccc1)N[*:1])[*:2]; azaLeu = CC(C)CN(N[*:1])C(=O)[*:2]; azaTyr′ = not defined here; HAIC = not defined here; azaGly = NNC(=O)O; Mpa = O=C(O)CCS

B1: CP-2B(i) (peptide)
peptide: H[dW][azaLeu]W[dF]A-NH2
modifications: N-terminus assumed
SMILES: CC(C)CN(NC(=O)[C@@H](Cc1c[nH]c2ccccc12)NC(=O)[C@@H](N)Cc1c[nH]cn1)C(=O)N[C@@H](Cc1c[nH]c2ccccc12)C(=O)N[C@H](Cc1ccccc1)C(=O)N[C@@H](C)C(N)=O
B2: CP-3(iv) (peptide)
peptide: A[dW]A[azaPhe][dF]K-NH2
modifications: N-terminus assumed
SMILES: C[C@H](N)C(=O)N[C@H](Cc1c[nH]c2ccccc12)C(=O)N[C@@H](C)C(=O)NN(Cc1ccccc1)C(=O)N[C@H](Cc1ccccc1)C(=O)N[C@@H](CCCCN)C(N)=O
B3: 3-MPA-LLHHDD-OH (peptide)
peptide: [Mpa]LLHHDD-OH
SMILES: CC(C)C[C@H](NC(=O)CCS)C(=O)N[C@@H](CC(C)C)C(=O)N[C@@H](Cc1c[nH]cn1)C(=O)N[C@@H](Cc1c[nH]cn1)C(=O)N[C@@H](CC(=O)O)C(=O)N[C@@H](CC(=O)O)C(=O)O
B4: 3-MPA-GGHHDD-OH (peptide)
peptide: [Mpa]GGHHDD-OH
SMILES: O=C(O)C[C@H](NC(=O)[C@H](CC(=O)O)NC(=O)[C@H](Cc1c[nH]cn1)NC(=O)[C@H](Cc1c[nH]cn1)NC(=O)CNC(=O)CNC(=O)CCS)C(=O)O
B5: 3-MPA-DHDHD-OH (peptide)
peptide: [Mpa]DHDHD-OH
SMILES: O=C(O)C[C@H](NC(=O)[C@H](Cc1c[nH]cn1)NC(=O)[C@H](CC(=O)O)NC(=O)[C@H](Cc1c[nH]cn1)NC(=O)[C@H](CC(=O)O)NC(=O)CCS)C(=O)O
B6: 3-MPA-DSDSD-OH (peptide)
peptide: [Mpa]DSDSD-OH
SMILES: O=C(O)C[C@H](NC(=O)[C@H](CO)NC(=O)[C@H](CC(=O)O)NC(=O)[C@H](CO)NC(=O)[C@H](CC(=O)O)NC(=O)CCS)C(=O)O
B7: 3-MPA-LHDLHD-OH (peptide)
peptide: [Mpa]LHDLHD-OH
SMILES: CC(C)C[C@H](NC(=O)CCS)C(=O)N[C@@H](Cc1c[nH]cn1)C(=O)N[C@@H](CC(=O)O)C(=O)N[C@@H](CC(C)C)C(=O)N[C@@H](Cc1c[nH]cn1)C(=O)N[C@@H](CC(=O)O)C(=O)O
B8: 3-MPA-SHDSHD-OH (peptide)
peptide: [Mpa]SHDSHD-OH
SMILES: O=C(O)C[C@H](NC(=O)[C@H](Cc1c[nH]cn1)NC(=O)[C@H](CO)NC(=O)[C@H](CC(=O)O)NC(=O)[C@H](Cc1c[nH]cn1)NC(=O)[C@H](CO)NC(=O)CCS)C(=O)O

target: CD36 receptor (in the src-kinase cellular assay); assay: cell-based or functional assay

Binder | SRC-kinase cellular assay EC50 [nM]
B1 | > 10000
B2 | 44
H[dW][azaGly]W[dF]K-NH2 [CP-2A(v)] | 26
H[dW]A[azaTyr′][dF]K-NH2 [DBG-178(27)] | 63

target: recombinant soluble His-tagged CD36; assay: SPR, His-tagged CD36 held on the Cu-NTA peptide monolayer, linear Langmuir plot
Sequence (P16671 30-439): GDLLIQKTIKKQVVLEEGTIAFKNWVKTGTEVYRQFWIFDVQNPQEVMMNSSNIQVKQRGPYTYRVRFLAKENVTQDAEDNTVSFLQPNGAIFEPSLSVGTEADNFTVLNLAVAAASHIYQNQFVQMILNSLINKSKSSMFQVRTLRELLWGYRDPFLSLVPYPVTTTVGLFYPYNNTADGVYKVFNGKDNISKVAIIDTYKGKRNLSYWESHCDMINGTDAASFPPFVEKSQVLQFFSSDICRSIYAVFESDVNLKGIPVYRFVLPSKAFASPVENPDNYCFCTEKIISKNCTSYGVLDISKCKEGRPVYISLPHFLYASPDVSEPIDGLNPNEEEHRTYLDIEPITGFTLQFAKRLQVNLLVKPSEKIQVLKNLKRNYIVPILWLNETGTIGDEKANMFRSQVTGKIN

Binder | Kd [nM]
B1 | 1400
B2 | 380
H[dW][azaGly]W[dF]K-NH2 [CP-2A(v)] | 44
H[dW]A[azaTyr′][dF]K-NH2 [DBG-178(27)] | 22
[HAIC][dTrp(2-Me)][dK]W[dF]K-NH2 (reading uncertain) [EP80317] | 82

target: nonspecific proteins present in blood serum; assay: SPR, mass of serum proteins adsorbed on the peptide self-assembled monolayer on gold

Binder | nonspecific adsorption (ΔΓnonspecific) [ng/cm^2]
[Mpa]SSSDD [3-MPA-SSSDD] | 23
[Mpa]HHHDD [3-MPA-HHHDD] | 32
[Mpa]LLLDD [3-MPA-LLLDD] | 35
[Mpa]LLLSS [3-MPA-LLLSS] | 39
[Mpa]LLLHH [3-MPA-LLLHH] | 45
[Mpa]HHHSS [3-MPA-HHHSS] | 48
[Mpa]DDDHH [3-MPA-DDDHH] | 56
[Mpa]DDDSS [3-MPA-DDDSS] | 69
[Mpa]SSSHH [3-MPA-SSSHH] | 79
B3 | 174
B4 | 149
B5 | 274
B6 | 34
B7 | 12
B8 | 17
[Mpa]GGGGD-OH (SMILES O=C(O)C[C@H](NC(=O)CNC(=O)CNC(=O)CNC(=O)CNC(=O)CCS)C(=O)O) [3-MPA-GGGGD-OH] | 218
